# According to patent publication US20210071139A1:
# Legend:
# Test in all cases: anti-TOX IP from EL4 nuclear extract, LC-MS/MS, MiST
# Tpm4 = Tpm4 (UniProt Q6IRU2)
# Tsr1 = Tsr1 (UniProt Q5SWD9)
# Hs2st1 = Hs2st1 (UniProt Q8R3H7)
# Myo6 = Myo6 (UniProt Q64331)
# Gm10094; Sap18 = target: Gm10094; Sap18
# Safb; Safb2; mKIAA0138 = target: Safb; Safb2; mKIAA0138
# Ing2 = Ing2 (UniProt Q9ESK4)
# Trim21 = Trim21 (UniProt Q62191)
# Dido1 = Dido1 (UniProt Q8C9B9)
# Wdhd1 = Wdhd1 (UniProt P59328)
# Ppp1r10 = Ppp1r10 (UniProt Q80W00)
# Dlgap5 = Dlgap5 (UniProt Q8K4R9)
# Tagln2 = Tagln2 (UniProt Q9WVA4)
# Pdlim1 = Pdlim1 (UniProt O70400)
# Snrpb2 = Snrpb2 (UniProt Q9CQI7)
# Sltm = Sltm (UniProt Q8CH25)
# Sequence of Dido1 (Q8C9B9 whole entry): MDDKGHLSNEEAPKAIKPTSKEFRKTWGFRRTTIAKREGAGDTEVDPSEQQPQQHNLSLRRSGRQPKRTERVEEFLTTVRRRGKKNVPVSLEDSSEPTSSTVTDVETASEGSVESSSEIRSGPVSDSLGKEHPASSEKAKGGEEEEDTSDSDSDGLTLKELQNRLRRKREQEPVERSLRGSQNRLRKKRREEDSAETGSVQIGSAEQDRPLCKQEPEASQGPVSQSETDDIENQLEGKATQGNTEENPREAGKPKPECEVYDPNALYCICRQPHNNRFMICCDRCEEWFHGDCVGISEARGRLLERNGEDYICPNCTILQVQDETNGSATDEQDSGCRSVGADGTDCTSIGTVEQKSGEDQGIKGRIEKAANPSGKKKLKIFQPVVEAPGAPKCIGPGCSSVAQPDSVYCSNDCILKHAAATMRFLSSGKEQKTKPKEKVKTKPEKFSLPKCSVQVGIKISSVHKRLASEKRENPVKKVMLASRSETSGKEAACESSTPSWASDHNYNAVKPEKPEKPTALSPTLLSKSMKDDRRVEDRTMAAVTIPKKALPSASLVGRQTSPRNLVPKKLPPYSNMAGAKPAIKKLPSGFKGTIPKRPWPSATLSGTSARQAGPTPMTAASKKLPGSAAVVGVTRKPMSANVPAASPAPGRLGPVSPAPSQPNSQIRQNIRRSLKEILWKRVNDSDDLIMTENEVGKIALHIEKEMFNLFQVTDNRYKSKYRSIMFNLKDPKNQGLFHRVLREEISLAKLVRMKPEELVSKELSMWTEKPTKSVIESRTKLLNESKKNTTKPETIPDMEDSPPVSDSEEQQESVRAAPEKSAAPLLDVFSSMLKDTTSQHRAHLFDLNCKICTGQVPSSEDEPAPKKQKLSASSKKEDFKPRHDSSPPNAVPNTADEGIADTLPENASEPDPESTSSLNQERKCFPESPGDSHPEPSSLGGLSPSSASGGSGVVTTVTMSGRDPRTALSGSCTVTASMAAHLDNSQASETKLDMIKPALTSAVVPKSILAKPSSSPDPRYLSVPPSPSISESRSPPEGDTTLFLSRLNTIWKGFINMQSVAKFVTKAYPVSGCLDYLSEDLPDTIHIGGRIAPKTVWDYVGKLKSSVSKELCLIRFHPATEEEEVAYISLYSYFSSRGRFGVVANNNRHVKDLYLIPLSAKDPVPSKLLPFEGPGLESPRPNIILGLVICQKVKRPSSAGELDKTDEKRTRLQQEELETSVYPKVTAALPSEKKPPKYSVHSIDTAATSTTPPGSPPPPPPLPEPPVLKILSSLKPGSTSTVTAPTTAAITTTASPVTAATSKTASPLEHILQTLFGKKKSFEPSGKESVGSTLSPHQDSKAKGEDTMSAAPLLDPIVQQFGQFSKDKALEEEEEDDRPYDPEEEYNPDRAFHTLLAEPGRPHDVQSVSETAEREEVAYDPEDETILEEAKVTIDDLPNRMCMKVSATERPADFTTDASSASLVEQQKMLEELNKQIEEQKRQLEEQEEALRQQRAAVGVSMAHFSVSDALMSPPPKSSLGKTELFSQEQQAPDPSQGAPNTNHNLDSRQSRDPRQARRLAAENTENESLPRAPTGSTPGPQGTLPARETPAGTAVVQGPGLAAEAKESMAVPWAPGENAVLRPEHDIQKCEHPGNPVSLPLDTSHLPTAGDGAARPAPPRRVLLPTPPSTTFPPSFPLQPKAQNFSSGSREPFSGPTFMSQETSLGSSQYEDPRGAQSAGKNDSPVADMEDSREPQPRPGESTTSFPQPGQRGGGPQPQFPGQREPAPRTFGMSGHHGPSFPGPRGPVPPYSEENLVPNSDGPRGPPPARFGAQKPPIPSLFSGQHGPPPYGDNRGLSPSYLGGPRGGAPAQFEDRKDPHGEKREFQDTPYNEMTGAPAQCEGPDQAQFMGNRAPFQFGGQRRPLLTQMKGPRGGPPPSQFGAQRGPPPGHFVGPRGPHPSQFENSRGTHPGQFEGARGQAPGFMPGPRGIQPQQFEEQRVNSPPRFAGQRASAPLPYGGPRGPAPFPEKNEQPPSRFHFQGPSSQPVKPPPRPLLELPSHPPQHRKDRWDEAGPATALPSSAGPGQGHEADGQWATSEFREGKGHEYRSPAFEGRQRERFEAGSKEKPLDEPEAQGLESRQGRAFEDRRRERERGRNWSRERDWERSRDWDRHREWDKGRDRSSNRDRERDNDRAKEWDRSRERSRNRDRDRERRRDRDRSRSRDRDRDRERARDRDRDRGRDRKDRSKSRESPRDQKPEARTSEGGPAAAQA
# Sequence of Dlgap5 (Q8K4R9 whole entry): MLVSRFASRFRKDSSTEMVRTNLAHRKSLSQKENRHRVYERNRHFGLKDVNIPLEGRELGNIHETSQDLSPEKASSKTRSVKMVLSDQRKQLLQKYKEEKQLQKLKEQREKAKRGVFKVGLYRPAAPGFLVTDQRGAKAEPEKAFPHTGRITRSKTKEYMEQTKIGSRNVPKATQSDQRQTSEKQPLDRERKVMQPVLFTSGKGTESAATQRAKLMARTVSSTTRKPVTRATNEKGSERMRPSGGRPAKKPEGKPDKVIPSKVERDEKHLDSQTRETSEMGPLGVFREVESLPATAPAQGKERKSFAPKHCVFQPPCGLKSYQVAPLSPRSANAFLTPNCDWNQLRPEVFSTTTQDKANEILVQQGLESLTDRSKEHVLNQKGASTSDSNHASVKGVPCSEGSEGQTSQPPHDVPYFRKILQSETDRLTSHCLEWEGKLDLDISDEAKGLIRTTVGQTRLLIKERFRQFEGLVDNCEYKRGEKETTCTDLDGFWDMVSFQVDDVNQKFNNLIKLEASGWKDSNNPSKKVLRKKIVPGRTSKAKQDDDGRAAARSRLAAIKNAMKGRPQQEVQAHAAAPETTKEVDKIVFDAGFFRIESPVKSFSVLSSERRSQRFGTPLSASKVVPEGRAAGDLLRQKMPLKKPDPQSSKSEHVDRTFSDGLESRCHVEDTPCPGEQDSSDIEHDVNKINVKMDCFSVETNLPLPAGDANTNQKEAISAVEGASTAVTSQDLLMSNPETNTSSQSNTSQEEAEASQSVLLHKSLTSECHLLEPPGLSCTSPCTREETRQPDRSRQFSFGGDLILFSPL
# Sequence of Ppp1r10 (Q80W00 whole entry): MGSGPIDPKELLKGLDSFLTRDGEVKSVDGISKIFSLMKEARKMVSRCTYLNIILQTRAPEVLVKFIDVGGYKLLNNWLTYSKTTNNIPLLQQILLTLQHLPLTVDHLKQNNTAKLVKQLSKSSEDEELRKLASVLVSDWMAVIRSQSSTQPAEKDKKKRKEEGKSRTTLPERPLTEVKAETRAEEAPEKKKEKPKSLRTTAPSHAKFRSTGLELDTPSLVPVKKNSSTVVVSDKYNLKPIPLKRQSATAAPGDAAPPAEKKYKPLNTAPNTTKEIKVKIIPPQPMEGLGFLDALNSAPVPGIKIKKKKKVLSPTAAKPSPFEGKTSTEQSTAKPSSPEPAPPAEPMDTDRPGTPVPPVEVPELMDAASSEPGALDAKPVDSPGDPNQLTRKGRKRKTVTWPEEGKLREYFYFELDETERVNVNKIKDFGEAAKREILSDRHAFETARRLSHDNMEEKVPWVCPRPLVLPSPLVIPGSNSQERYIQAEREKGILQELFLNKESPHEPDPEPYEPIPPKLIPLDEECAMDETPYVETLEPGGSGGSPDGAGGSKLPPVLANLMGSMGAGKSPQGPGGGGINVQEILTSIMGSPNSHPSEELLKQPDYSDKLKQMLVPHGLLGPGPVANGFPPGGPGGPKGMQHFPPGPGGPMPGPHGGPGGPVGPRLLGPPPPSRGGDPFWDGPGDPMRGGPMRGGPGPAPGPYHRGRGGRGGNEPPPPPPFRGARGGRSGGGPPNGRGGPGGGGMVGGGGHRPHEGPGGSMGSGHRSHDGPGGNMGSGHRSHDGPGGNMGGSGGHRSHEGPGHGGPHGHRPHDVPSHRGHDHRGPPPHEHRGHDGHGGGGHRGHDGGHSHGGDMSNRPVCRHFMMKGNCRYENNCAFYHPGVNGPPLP
# Sequence of Ing2 (Q9ESK4 whole entry): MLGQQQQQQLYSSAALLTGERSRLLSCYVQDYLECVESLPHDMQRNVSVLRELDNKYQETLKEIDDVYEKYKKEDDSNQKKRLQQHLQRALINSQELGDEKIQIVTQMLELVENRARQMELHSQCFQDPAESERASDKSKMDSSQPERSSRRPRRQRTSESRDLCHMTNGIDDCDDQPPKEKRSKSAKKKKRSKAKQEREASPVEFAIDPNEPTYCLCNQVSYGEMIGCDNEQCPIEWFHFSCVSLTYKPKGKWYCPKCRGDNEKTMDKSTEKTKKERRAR
# Sequence of TOX (Q66JW3 whole entry): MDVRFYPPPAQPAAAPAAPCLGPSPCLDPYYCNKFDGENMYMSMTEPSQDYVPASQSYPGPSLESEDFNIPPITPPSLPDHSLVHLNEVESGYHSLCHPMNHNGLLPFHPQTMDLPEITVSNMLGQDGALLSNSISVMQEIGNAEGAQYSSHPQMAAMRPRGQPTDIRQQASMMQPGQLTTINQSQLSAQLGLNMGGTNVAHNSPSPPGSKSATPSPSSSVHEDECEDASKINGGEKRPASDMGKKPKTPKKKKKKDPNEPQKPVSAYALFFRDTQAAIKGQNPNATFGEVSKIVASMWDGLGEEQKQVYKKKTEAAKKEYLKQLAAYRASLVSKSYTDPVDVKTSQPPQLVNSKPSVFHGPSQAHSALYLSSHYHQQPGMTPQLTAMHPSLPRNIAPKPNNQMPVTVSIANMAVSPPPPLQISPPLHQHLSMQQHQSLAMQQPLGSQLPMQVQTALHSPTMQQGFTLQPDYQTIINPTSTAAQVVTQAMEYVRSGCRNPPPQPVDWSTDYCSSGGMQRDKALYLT
# Sequence of Pdlim1 (O70400 2-327 limits assumed): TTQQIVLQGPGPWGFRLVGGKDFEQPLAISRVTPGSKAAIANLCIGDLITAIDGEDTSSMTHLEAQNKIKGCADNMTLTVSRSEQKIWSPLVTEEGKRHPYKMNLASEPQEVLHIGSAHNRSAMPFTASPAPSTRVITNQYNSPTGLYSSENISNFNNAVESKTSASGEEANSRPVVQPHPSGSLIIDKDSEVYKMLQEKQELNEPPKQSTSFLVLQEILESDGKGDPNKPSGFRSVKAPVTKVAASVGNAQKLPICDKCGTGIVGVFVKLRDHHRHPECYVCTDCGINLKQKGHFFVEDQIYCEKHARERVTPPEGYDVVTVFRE
substance,measurement,setting,value
TOX (from UniProt Q66JW3 1-526),Abundance,Tpm4,0.000138
same,MiST Score,Tpm4,0.859
same,Reproducibility,Tpm4,0.979
same,Specificity,Tpm4,0.812
same,Abundance,Tsr1,5.3e-06
same,MiST Score,Tsr1,0.862
same,Reproducibility,Tsr1,0.962
same,Specificity,Tsr1,0.824
same,Abundance,Hs2st1,6.47e-06
same,MiST Score,Hs2st1,0.879
same,Reproducibility,Hs2st1,0.628
same,Specificity,Hs2st1,1
same,Abundance,Myo6,5.25e-07
same,MiST Score,Myo6,0.88
same,Reproducibility,Myo6,0.63
same,Specificity,Myo6,1
same,Abundance,Gm10094; Sap18,2.26e-05
same,MiST Score,Gm10094; Sap18,0.878
same,Reproducibility,Gm10094; Sap18,0.625
same,Specificity,Gm10094; Sap18,1
same,Abundance,Safb; Safb2; mKIAA0138,3.18e-06
same,MiST Score,Safb; Safb2; mKIAA0138,0.873
same,Reproducibility,Safb; Safb2; mKIAA0138,0.609
same,Specificity,Safb; Safb2; mKIAA0138,1
same,Abundance,Ing2,2.44e-05
same,MiST Score,Ing2,0.878
same,Reproducibility,Ing2,0.625
same,Specificity,Ing2,1
same,Abundance,Trim21,4.56e-06
same,MiST Score,Trim21,0.858
same,Reproducibility,Trim21,0.56
same,Specificity,Trim21,1
same,Abundance,Dido1,3.41e-07
same,MiST Score,Dido1,0.878
same,Reproducibility,Dido1,0.624
same,Specificity,Dido1,1
same,Abundance,Wdhd1,1.64e-06
same,MiST Score,Wdhd1,0.877
same,Reproducibility,Wdhd1,0.619
same,Specificity,Wdhd1,1
same,Abundance,Ppp1r10,1.37e-05
same,MiST Score,Ppp1r10,0.868
same,Reproducibility,Ppp1r10,0.65
same,Specificity,Ppp1r10,0.974
same,Abundance,Dlgap5,6.65e-06
same,MiST Score,Dlgap5,0.876
same,Reproducibility,Dlgap5,0.81
same,Specificity,Dlgap5,0.914
same,Abundance,Tagln2,1.75e-05
same,MiST Score,Tagln2,0.875
same,Reproducibility,Tagln2,0.616
same,Specificity,Tagln2,1
same,Abundance,Pdlim1,1.21e-05
same,MiST Score,Pdlim1,0.858
same,Reproducibility,Pdlim1,0.559
same,Specificity,Pdlim1,1
same,Abundance,Snrpb2,7.46e-05
same,MiST Score,Snrpb2,0.858
same,Reproducibility,Snrpb2,0.558
same,Specificity,Snrpb2,1
same,Abundance,Sltm,2.12e-06
same,MiST Score,Sltm,0.864
same,Reproducibility,Sltm,0.988
same,Specificity,Sltm,0.816
